The results in this text go back to the supplement of paper PMC5998384.

The subject of data set [1] is HeLa Kyoto. Description: solubility change mitosis vs G1/S (difference of NP-40 vs SDS log2 ratios) (log2 ratio difference); higher = more soluble in mitosis.
The subject of data set [2] is HeLa Kyoto. As to the kind of experiment: thermal stability score vs G1/S (z-score of summed log2 fold changes over temperatures); higher = more thermally stable than in G1/S.
Data set [3] deals with HeLa Kyoto. As to the kind of experiment: solubility in G1/S (NP-40 vs SDS abundance) (log2 ratio); higher = more soluble. The note with it: cell cycle stage: G1/S.
In data set [4] the test system is HeLa Kyoto. As to the kind of experiment: melting temperature (median over replicates), in situ; higher = more thermally stable.
Setting [5] is: cell cycle stage: early G1 (4.5 h after nocodazole release).
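Throughout, for melting temperature (median over replicates), in situ: HeLa Kyoto cells synchronized by double thymidine or nocodazole block, proteins quantified by TMT10plex mass spectrometry, three independent biological replicates.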
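Throughout, for solubility change mitosis vs G1/S (difference of NP-40 vs SDS log2 ratios): synchronized HeLa Kyoto cells (double thymidine block for G1/S, nocodazole release for mitosis), protein amounts in NP-40 versus SDS lysates quantified by mass spectrometry, three biological replicates.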
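Throughout, for solubility in G1/S (NP-40 vs SDS abundance): HeLa Kyoto cells arrested at G1/S by double thymidine block, proteins quantified by TMT10plex mass spectrometry in mild NP-40 versus SDS extracts, three biological replicates.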
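Throughout, for thermal stability score vs G1/S (z-score of summed log2 fold changes over temperatures): synchronized HeLa Kyoto cells, proteins quantified by TMT10plex mass spectrometry, three biological replicates, mitosis taken 0.5 h after nocodazole release, G1/S directly after double thymidine block.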

Take “MAAAAMAAAAGGGAGAARSLSRFRGCLAGALLGDCVGSFYEAHDTVDLTSVLRHVQSLEPDPGTPGSERTEALYYTDDTAMARALVQSLLAKEAFDEVDMAHRFAQEYKKDPDRGYGAGVVTVFKKLLNPKCRDVFEPARAQFNGKGSYGNGGAMRVAGISLAYSSVQDVQKFARLSAQLTHASSLGYNGAILQALAVHLALQGESSSEHFLKQLLGHMEDLEGDAQSVLDARELGMEERPYSSRLKKIGELLDQASVTREEVVSELGNGIAAFESVPTAIYCFLRCMEPDPEIPSAFNSLQRTLIYSISLGGDTDTIATMAGAIAGAYYGMDQVPESWQQSCEGYEETDILAQSLHRVFQKS [ADPRHL2]”: in the data set on HeLa Kyoto [1], the “solubility change mitosis (log2)” value is -0.105. Moreover, the thermal stability score was 0.365 in the data set on HeLa Kyoto [2] (setting [5]) and -0.404 with HeLa Kyoto [2] (cell cycle stage: mitosis). For the same sequence, the “solubility in G1/S (log2)” value with HeLa Kyoto [3] was determined as 0.408. Also, the results for the melting temperature in the data set on HeLa Kyoto [4] (cell cycle stage: G1/S) and with HeLa Kyoto [4] (cell cycle stage: mitosis) were 53.3 °C and 52.5 °C, respectively.

In the case of “MAAAAPVAADDDERRRRPGAALEDSRSQEGANGEAESGELSRLRAELAGALAEMETMKAVAEVSESTKAEAVAAVQRQCQEEVASLQAILKDSISSYEAQITALKQERQQQQQDCEEKERELGRLKQLLSRAYPLDSLEKQMEKAHEDSEKLREIVLPMEKEIEELKAKLLRAEELIQEIQRRPRHAPSLHGSTELLPLSRDPSPPLEPLEELSGDGGPAAEAFAHNCDDSASISSFSLGGGVGSSSSLPQSRQGLSPEQEETASLVSTGTLVPEGIYLPPPGYQLVPDTQWEQLQTEGRQLQKDLESVSRERDELQEGLRRSNEDCAKQMQVLLAQVQNSEQLLRTLQGTVSQAQERVQLQMAELVTTHKCLHHEVKRLNEENQGLRAEQLPSSAPQGSQQEQGEEESLPSSVPELQQLLCCTRQEARARLQAQEHGAERLRIEIVTLREALEEETVARASLEGQLRVQREETEVLEASLCSLRTEMERVQQEQSKAQLPDLLSEQRAKVLRLQAELETSEQVQRDFVRLSQALQVRLERIRQAETLEQVRSIMDEAPLTDVRDIKDT [RABEP2]”, the “solubility change mitosis (log2)” value with HeLa Kyoto [1] stood at 0.304. Moreover, the figures for the thermal stability score with HeLa Kyoto [2] (setting [5]) and in the data set with HeLa Kyoto [2] (cell cycle stage: mitosis) were -0.553 and 0.297, respectively. In addition, the “solubility in G1/S (log2)” value in the data set on HeLa Kyoto [3] was 0.504. The melting temperature was 49 °C in the data set on HeLa Kyoto [4] (cell cycle stage: G1/S) and 50.6 °C in the data set on HeLa Kyoto [4] (cell cycle stage: mitosis).

Regarding “MAAADAEAVPARGEPQQDCCVKTELLGEETPMAADEGSAEKQAGEAHMAADGETNGSCENSDASSHANAAKHTQDSARVNPQDGTNTLTRIAENGVSERDSEAAKQNHVTADDFVQTSVIGSNGYILNKPALQAQPLRTTSTLASSLPGHAAKTLPGGAGKGRTPSAFPQTPAAPPATLGEGSADTEDRKLPAPGADVKVHRARKTMPKSVVGLHAASKDPREVREARDHKEPKEEINKNISDFGRQQLLPPFPSLHQSLPQNQCYMATTKSQTACLPFVLAAAVSRKKKRRMGTYSLVPKKKTKVLKQRTVIEMFKSITHSTVGSKGEKDLGASSLHVNGESLEMDSDEDDSEELEEDDGHGAEQAAAFPTEDSRTSKESMSEADRAQKMDGESEEEQESVDTGEEEEGGDESDLSSESSIKKKFLKRKGKTDSPWIKPARKRRRRSRKKPSGALGSESYKSSAGSAEQTAPGDSTGYMEVSLDSLDLRVKGILSSQAEGLANGPDVLETDGLQEVPLCSCRMETPKSREITTLANNQCMATESVDHELGRCTNSVVKYELMRPSNKAPLLVLCEDHRGRMVKHQCCPGCGYFCTAGNFMECQPESSISHRFHKDCASRVNNASYCPHCGEESSKAKEVTIAKADTTSTVTPVPGQEKGSALEGRADTTTGSAAGPPLSEDDKLQGAASHVPEGFDPTGPAGLGRPTPGLSQGPGKETLESALIALDSEKPKKLRFHPKQLYFSARQGELQKVLLMLVDGIDPNFKMEHQNKRSPLHAAAEAGHVDICHMLVQAGANIDTCSEDQRTPLMEAAENNHLEAVKYLIKAGALVDPKDAEGSTCLHLAAKKGHYEVVQYLLSNGQMDVNCQDDGGWTPMIWATEYKHVDLVKLLLSKGSDINIRDNEENICLHWAAFSGCVDIAEILLAAKCDLHAVNIHGDSPLHIAARENRYDCVVLFLSRDSDVTLKNKEGETPLQCASLNSQVWSALQMSKALQDSAPDRPSPVERIVSRDIARGYERIPIPCVNAVDSEPCPSNYKYVSQNCVTSPMNIDRNITHLQYCVCIDDCSSSNCMCGQLSMRCWYDKDGRLLPEFNMAEPPLIFECNHACSCWRNCRNRVVQNGLRARLQLYRTRDMGWGVRSLQDIPPGTFVCEYVGELISDSEADVREEDSYLFDLDNKDGEVYCIDARFYGNVSRFINHHCEPNLVPVRVFMAHQDLRFPRIAFFSTRLIEAGEQLGFDYGERFWDIKGKLFSCRCGSPKCRHSSAALAQRQASAAQEAQEDGLPDTSSAAAADPL [EHMT1]”, the “solubility change mitosis (log2)” value with HeLa Kyoto [1] was 0.332. The thermal stability score with HeLa Kyoto [2] (setting [5]) turned out to be 1.22; in the data set with HeLa Kyoto [2] (cell cycle stage: mitosis), 2.18. Also, in the data set on HeLa Kyoto [3], the “solubility in G1/S (log2)” value is -0.58. In the data set on HeLa Kyoto [4] (cell cycle stage: G1/S), the melting temperature was 50.2 °C.

As to “MAAAGAAVARSPGIGAGPALRARRSPPPRAARLPRLLVLLAAAAVGPGAGGAARLYRAGEDAVWVLDSGSVRGATANSSAAWLVQFYSSWCGHCIGYAPTWRALAGDVRDWASAIRVAALDCMEEKNQAVCHDYDIHFYPTFRYFKAFTKEFTTGENFKGPDRELRTVRQTMIDFLQNHTEGSRPPACPRLDPIQPSDVLSLLDNRGSHYVAIVFESNSSYLGREVILDLIPYESIVVTRALDGDKAFLEKLGVSSVPSCYLIYPNGSHGLINVVKPLRAFFSSYLKSLPDVRKKSLPLPEKPHKEENSEIVVWREFDKSKLYTVDLESGLHYLLRVELAAHKSLAGAELKTLKDFVTVLAKLFPGRPPVKKLLEMLQEWLASLPLDRIPYNAVLDLVNNKMRISGIFLTNHIKWVGCQGSRSELRGYPCSLWKLFHTLTVEASTHPDALVGTGFEDDPQAVLQTMRRYVHTFFGCKECGEHFEEMAKESMDSVKTPDQAILWLWKKHNMVNGRLAGHLSEDPRFPKLQWPTPDLCPACHEEIKGLASWDEGHVLTFLKQHYGRDNLLDTYSADQGDSSEGGTLARGEEEEKRLTPPEVSHGDRDTQSVRPPGALGPRPALPESLHHSLDGKLQSLDGPGAHKEVGGAAPFLGVDFSSLDMSLCVVLYVASSLFLMVMYFFFRVRSRRWKVKHHHPAV [QSOX2]”, the “solubility change mitosis (log2)” value in the data set on HeLa Kyoto [1] was 0.252. Besides, the thermal stability score with HeLa Kyoto [2] (setting [5]) is -2.12; in the data set on HeLa Kyoto [2] (cell cycle stage: mitosis), -0.982. The “solubility in G1/S (log2)” value in the data set on HeLa Kyoto [3] was 0.207. For the same sequence, the figures for the melting temperature in the data set on HeLa Kyoto [4] (cell cycle stage: G1/S) and in the data set with HeLa Kyoto [4] (cell cycle stage: mitosis) were 54.7 °C and 54.9 °C, respectively.
